According to PMC3682517, “Engineering A-kinase Anchoring Protein (AKAP)-selective Regulatory Subunits of Protein Kinase A (PKA) through Structure-based Phage Selection*^([image sbox.jpg])” (The Journal of Biological Chemistry, 2013):

What was measured:
[1] = biological target: T1, wild-type RII(1–45) D/D domain fragment (UniProt P13861 1-45, biotinylated when used as AlphaScreen tracer (site not stated)); assay: AlphaScreen or HTRF; competition binding: biotinylated R subunit D/D domain 0.3 nM (tracer), GST-AKAP RII-binding region 3 nM (target), increasing untagged R subunit D/D domain; IC50 approximates Kd; 20 mM HEPES pH 7.2, 100 mM NaCl, 0.1% BSA; 1 h at 4 °C; one-site competition fit; conditions: both partners purified
T1 construct: PKA regulatory subunit RIIα, residues 1-45, docking and dimerization (D/D) domain; His6 tag is PreScission-cleavable; also called WT RII; RII D/D domain; not shown: V5, C-terminal, kept

[2] = biological target: T2, R_(Select)AKAP18(1–45) D/D domain fragment (UniProt P13861 2-46, Val-3 in R_(Select)AKAP18 | Leu-5 in R_(Select)AKAP18 | Asp-10 in each …, biotinylated when used as AlphaScreen tracer (site not stated)); assay: as above; conditions: both partners purified
T2 construct: PKA regulatory subunit RIIα, residues 1-45 (D/D domain), variant selected by phage display against AKAP18; changes at positions 3, 5, 10 and 14; not shown: V5, C-terminal, kept

| Kd [1] [nM] | Kd [2] [nM] | Binder |
| --- | --- | --- |
| 12.5 ± 1.8 | – | GST-AKAP2 anchoring helix fragment (domain or fragment) GDSPLVDDPLEYQAGLLVQNAIQQAIAEQVDKAVSKTSRDGAEQQGPEATVEEAEAAAFG |
| 16.3 | 162 | GST-AKAP18 anchoring helix fragment (domain or fragment) NGGEPDDAELVRLSKRLVENAVLKAVQQYLEETQNKNKPGEGSSVKTEAADQNGNDNENNRK |
